Measurements reported in publication PMC10397247.
Like-named read-outs stand apart in the source and are kept apart here.

How the values were obtained:
Test in all cases: two-hybrid library CCmax;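 further: natural log of median RNA to DNA barcode read ratio; higher means stronger binding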
4H3001-AA = molecular target: T1, 4H3001-AA; settings: mean of both orientations
T1 chain: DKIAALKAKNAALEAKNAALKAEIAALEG

4H452-AA = molecular target: T2, 4H452-AA; settings: mean of both orientations
T2 chain: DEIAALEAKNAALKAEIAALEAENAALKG

4H2728-AA = molecular target: T3, 4H2728-AA; settings: mean of both orientations
T3 chain: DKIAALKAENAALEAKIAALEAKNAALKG

4H347-AA = molecular target: T4, 4H347-AA; settings: mean of both orientations
T4 chain: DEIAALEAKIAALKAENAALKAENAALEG

4H3782-AA = molecular target: T5, 4H3782-AA; settings: mean of both orientations
T5 chain: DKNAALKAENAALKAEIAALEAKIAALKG

4H3073-AA = molecular target: T6, 4H3073-AA; settings: mean of both orientations
T6 chain: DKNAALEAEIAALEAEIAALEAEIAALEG

4H3049-AA = molecular target: T7, 4H3049-AA; settings: mean of both orientations
T7 chain: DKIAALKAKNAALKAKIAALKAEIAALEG

4H688-AA = molecular target: T8, 4H688-AA; settings: mean of both orientations
T8 chain: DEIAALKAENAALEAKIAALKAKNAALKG

4H376-AA = molecular target: T9, 4H376-AA; settings: mean of both orientations
T9 chain: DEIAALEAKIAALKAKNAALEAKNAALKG

4H454-AA = molecular target: T10, 4H454-AA; settings: mean of both orientations
T10 chain: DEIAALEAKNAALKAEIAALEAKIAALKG

P3-AA = molecular target: T11, P3-AA; settings: mean of both orientations
T11 chain: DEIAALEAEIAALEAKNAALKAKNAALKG

4H566-AA = molecular target: T12, 4H566-AA; settings: mean of both orientations
T12 chain: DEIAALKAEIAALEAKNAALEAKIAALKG

4H_APH3 = molecular target: T13, 4H_APH3
T13 chain: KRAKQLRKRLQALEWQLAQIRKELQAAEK

4H2165-AA = molecular target: T14, 4H2165-AA; settings: mean of both orientations
T14 chain: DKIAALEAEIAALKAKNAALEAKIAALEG

4H2754-AA = molecular target: T15, 4H2754-AA; settings: mean of both orientations
T15 chain: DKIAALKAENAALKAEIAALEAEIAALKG

AP3-AA = molecular target: T16, AP3-AA; settings: mean of both orientations
T16 chain: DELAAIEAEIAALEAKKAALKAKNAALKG

AP2-AA = molecular target: T17, AP2-AA; settings: mean of both orientations
T17 chain: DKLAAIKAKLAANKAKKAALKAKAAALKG

4H993-AA = molecular target: T18, 4H993-AA; settings: mean of both orientations
T18 chain: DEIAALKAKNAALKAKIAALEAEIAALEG

4H1845-AA = molecular target: T19, 4H1845-AA; settings: mean of both orientations
T19 chain: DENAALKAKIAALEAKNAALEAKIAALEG

4H906-AA = molecular target: T20, 4H906-AA; settings: mean of both orientations
T20 chain: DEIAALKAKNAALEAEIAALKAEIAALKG

4H1513-AA = molecular target: T21, 4H1513-AA; settings: mean of both orientations
T21 chain: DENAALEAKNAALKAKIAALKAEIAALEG

4H2354-AA = molecular target: T22, 4H2354-AA; settings: mean of both orientations
T22 chain: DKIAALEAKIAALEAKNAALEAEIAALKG

4H1594-AA = molecular target: T23, 4H1594-AA; settings: mean of both orientations
T23 chain: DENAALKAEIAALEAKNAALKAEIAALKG

4H3655-AA = molecular target: T24, 4H3655-AA; settings: mean of both orientations
T24 chain: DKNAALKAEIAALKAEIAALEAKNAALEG

4H3413-AA = molecular target: T25, 4H3413-AA; settings: mean of both orientations
T25 chain: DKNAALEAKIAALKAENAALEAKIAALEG

4H342-AA = molecular target: T26, 4H342-AA; settings: mean of both orientations
T26 chain: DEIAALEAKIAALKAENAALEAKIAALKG

4H2949-AA = molecular target: T27, 4H2949-AA; settings: mean of both orientations
T27 chain: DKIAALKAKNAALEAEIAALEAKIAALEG

4H3112-AA = molecular target: T28, 4H3112-AA; settings: mean of both orientations
T28 chain: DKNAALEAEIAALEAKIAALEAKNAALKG

4H2109-AA = molecular target: T29, 4H2109-AA
T29 chain: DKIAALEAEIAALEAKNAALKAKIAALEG

4H1877-AA = molecular target: T30, 4H1877-AA; settings: mean of both orientations
T30 chain: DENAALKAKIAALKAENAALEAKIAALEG

4H883-AA = molecular target: T31, 4H883-AA; settings: mean of both orientations
T31 chain: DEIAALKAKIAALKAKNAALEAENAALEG

4H3855-AA = molecular target: T32, 4H3855-AA; settings: mean of both orientations
T32 chain: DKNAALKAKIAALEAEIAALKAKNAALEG

4H687-AA = molecular target: T33, 4H687-AA; settings: mean of both orientations
T33 chain: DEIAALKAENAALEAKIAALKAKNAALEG

4H918-AA = molecular target: T34, 4H918-AA; settings: mean of both orientations
T34 chain: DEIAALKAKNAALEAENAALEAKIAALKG

4H568-AA = molecular target: T35, 4H568-AA; settings: mean of both orientations
T35 chain: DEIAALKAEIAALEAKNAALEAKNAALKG

4H451-AA = molecular target: T36, 4H451-AA
T36 chain: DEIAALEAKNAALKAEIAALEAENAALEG

4H2705-AA = molecular target: T37, 4H2705-AA; settings: mean of both orientations
T37 chain: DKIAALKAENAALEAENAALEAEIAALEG

O11-AA = molecular target: T38, O11-AA; settings: mean of both orientations
T38 chain: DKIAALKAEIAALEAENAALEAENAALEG

4H1392-AA = molecular target: T39, 4H1392-AA; settings: mean of both orientations
T39 chain: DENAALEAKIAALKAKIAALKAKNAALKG

4H43-AA = molecular target: T40, 4H43-AA; settings: mean of both orientations
T40 chain: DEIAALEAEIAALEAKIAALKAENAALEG

B1: 4H249-AA (peptide)
chain: DEIAALEAENAALKAKNAALKAEIAALEG
4H3001-AA
  interaction score: -1.12
4H452-AA
  interaction score: -1.53
4H2728-AA
  interaction score: -0.387
4H347-AA
  interaction score: 0.274
4H3782-AA
  interaction score: 1.43
4H3073-AA
  interaction score: -1.75
4H3049-AA
  interaction score: -1.71
4H688-AA
  interaction score: 0.32
4H376-AA
  interaction score: -1.45

B2: 4H1401-AA (peptide)
chain: DENAALEAKIAALKAKNAALKAEIAALEG
4H454-AA
  interaction score: -1.2
P3-AA
  interaction score: -1.1
4H566-AA
  interaction score: 1.79
4H_APH3
  interaction score: -1.06
4H2165-AA
  interaction score: -1.62
4H2754-AA
  interaction score: -1.71
AP3-AA
  interaction score: -0.918
AP2-AA
  interaction score: -1.98
4H993-AA
  interaction score: -1.26
4H1845-AA
  interaction score: -1.13
4H906-AA
  interaction score: -1.91
4H1513-AA
  interaction score: -1.9
4H2354-AA
  interaction score: -1.3
4H1594-AA
  interaction score: -0.109
4H3655-AA
  interaction score: -1.48
4H3413-AA
  interaction score: 0.857
4H342-AA
  interaction score: 2.15
4H2949-AA
  interaction score: 0.393
4H3112-AA
  interaction score: -1.06

B3: 4H3606-AA (peptide)
chain: DKNAALKAEIAALEAENAALEAKIAALKG
4H454-AA
  interaction score: 1.23
P3-AA
  interaction score: -0.421
4H566-AA
  interaction score: -0.683
4H_APH3
  interaction score: -1.55
AP3-AA
  interaction score: -1.06
AP2-AA
  interaction score: -1.36
4H993-AA
  interaction score: 1.33
4H906-AA
  interaction score: -1.72
4H3655-AA
  interaction score: -1.72

B4: 4H1142-AA (peptide)
chain: DENAALEAEIAALKAKNAALEAKIAALKG
4H2109-AA
  interaction score: 0.249
4H1845-AA
  interaction score: -0.689
4H1513-AA
  interaction score: -1.67
4H1594-AA
  interaction score: 0.842
4H3413-AA
  interaction score: 0.554
4H1877-AA
  interaction score: 1.48

B5: 4H1845-AA (peptide)
chain: DENAALKAKIAALEAKNAALEAKIAALEG
4H883-AA
  interaction score: -1.57
4H3855-AA
  interaction score: -1.94
4H687-AA
  interaction score: -1.51
4H3782-AA
  interaction score: -1.6
4H918-AA
  interaction score: -1
4H3413-AA
  interaction score: -0.729
4H568-AA
  interaction score: -1.18
4H3112-AA
  interaction score: -1.24

B6: 4H1385-AA (peptide)
chain: DENAALEAKIAALKAKIAALKAEIAALEG
4H2109-AA; mean of both orientations
  interaction score: 0.64
4H451-AA
  interaction score: -1.11
4H2705-AA
  interaction score: -1.8
O11-AA
  interaction score: 0.214
4H1392-AA
  interaction score: -0.355
4H3049-AA
  interaction score: -0.544
4H43-AA
  interaction score: 1.97
4H1877-AA
  interaction score: -0.357

B7: 4H2253-AA (peptide)
chain: DKIAALEAENAALKAEIAALKAKIAALEG
4H3001-AA
  interaction score: -1.42
4H452-AA
  interaction score: -1.74
4H347-AA
  interaction score: -1.66
4H3073-AA
  interaction score: -0.681
